From the supplement of paper PMC11246515
± gives the standard deviation of the averaged measurements.

Assay: total protein half-life in vivo (active degradation + dilution); higher = more stable protein
[1] = E. coli NCM3722 delta-clpP delta-lon delta-hslV, growth: N-lim chemostat, doubling time 6 h
[2] = wild type E. coli NCM3722, growth: C-lim chemostat, doubling time 3 h
[3] = wild type E. coli NCM3722, growth: C-lim chemostat, doubling time 6 h
[4] = wild type E. coli NCM3722, growth: C-lim chemostat, doubling time 12 h
[5] = E. coli NCM3722 delta-clpP, growth: N-lim chemostat, doubling time 6 h
[6] = E. coli NCM3722 delta-hslV, growth: N-lim chemostat, doubling time 6 h
[7] = E. coli NCM3722 delta-lon, growth: N-lim chemostat, doubling time 6 h
[8] = E. coli NCM3722 delta-smpB, growth: N-lim chemostat, doubling time 6 h
[9] = wild type E. coli NCM3722, growth: N-lim chemostat, doubling time 6 h
[10] = wild type E. coli NCM3722, growth: N-lim chemostat, doubling time 12 h
[11] = wild type E. coli NCM3722, growth: P-lim chemostat, doubling time 6 h
[12] = wild type E. coli NCM3722, growth: P-lim chemostat, doubling time 12 h

| Sequence | total protein half-life in vivo [1] [h] | total protein half-life in vivo [2] [h] | total protein half-life in vivo [3] [h] | total protein half-life in vivo [4] [h] | total protein half-life in vivo [5] [h] | total protein half-life in vivo [6] [h] | total protein half-life in vivo [7] [h] | total protein half-life in vivo [8] [h] | total protein half-life in vivo [9] [h] | total protein half-life in vivo [10] [h] | total protein half-life in vivo [11] [h] | total protein half-life in vivo [12] [h] |
| --- | --- | --- | --- | --- | --- | --- | --- | --- | --- | --- | --- | --- |
| MPQQNYLDELTPAFTSLLAIKEASRCLLCHDAPCSQACPAQTDPGKFIRSIYFRNFKGAAETIRENNALGAVCARVCPTEKLCQSGCTRAGVDAPIDIGRLQRFVTDFEQQTGMEIYQPGTKTLGKVAIIGAGPAGLQASVTLTNQGYDVTIYEKEAHPGGWLRNGIPQFRLPQSVLDAEIARIEKMGVTIKCNNEVGNTLTLEQLKAENRAVLVTVGLSSGSGLPLFEHSDVEIAVDFLQRARQAQGDISIPQSALIIGGGDVAMDVASTLKVLGCQAVTCVAREELDEFPASEKEFTSARELGVSIIDGFTPVAVEGNKVTFKHVRLSGELTMAADKIILAVGQHARLDAFAELEPQRNTIKTQNYQTRDPQVFAAGDIVEGDKTVVYAVKTGKEAAEAIHHYLEGACSC | > 8 | 1.14 ± 0.029 | 1.42 ± 0.22 | 2.52 ± 1.1 | – | – | – | – | – | – | – | – |
| MPQRILVLGASGYIGQHLVRTLSQQGHQILAAARHVDRLAKLQLANVSCHKVDLSWPDNLPALLQDIDTVYFLVHSMGEGGDFIAQERQVALNVRDALREVPVKQLIFLSSLQAPPHEQSDHLRARQATADILREANVPVTELRAGIIVGAGSAAFEVMRDMVYNLPVLTPPRWVRSRTTPIALENLLHYLVALLDHPASEHRIFEAAGPEVLSYQQQFEHFMAVSGKRRWLIPIPLPTRWISVWFLNVITSVPPTTARALIQGLKHDLLADDTALRALIPQRLIAFDDAVRSTLKEEEKLVNSSDWGYDAQAFARWRPEYGYFAKQAGFTVKTSASLAALWQVVNQIGGKERYFFGNILWQTRALMDRAIGHKLAKGRPEREYLQTGDAVDSWKVIVVEPEKQLTLLFGMKAPGLGRLCFSLEDKGDYRTIDVRAFWHPHGMPGLFYWLLMIPAHLFIFRGMAKQIARLAEQSTD | – | 2.94 ± 0.081 | 5.88 ± 0.11 | 12.1 ± 2.1 | 6.7 ± 0.22 | 6.57 ± 0.8 | 6.64 ± 0.098 | 6.11 ± 0.37 | 6.42 ± 0.19 | 11.8 ± 0.4 | 5.23 ± 0.016 | 11.1 ± 0.83 |
| MPRGLELLIAQTILQGFDAQYGRFLEVTSGAQQRFEQADWHAVQQAMKNRIHLYDHHVGLVVEQLRCITNGQSTDAAFLLRVKEHYTRLLPDYPRFEIAESFFNSVYCRLFDHRSLTPERLFIFSSQPERRFRTIPRPLAKDFHPDHGWESLLMRVISDLPLRLRWQNKSRDIHYIIRHLTETLGTDNLAESHLQVANELFYRNKAAWLVGKLITPSGTLPFLLPIHQTDDGELFIDTCLTTTAEASIVFGFARSYFMVYAPLPAALVEWLREILPGKTTAELYMAIGCQKHAKTESYREYLVYLQGCNEQFIEAPGIRGMVMLVFTLPGFDRVFKVIKDRFAPQKEMSAAHVRACYQLVKEHDRVGRMADTQEFENFVLEKRHISPALMELLLQEAAEKITDLGEQIVIRHLYIERRMVPLNIWLEQVEGQQLRDAIEEYGNAIRQLAAANIFPGDMLFKNFGVTRHGRVVFYDYDEICYMTEVNFRDIPPPRYPEDELASEPWYSVSPGDVFPEEFRHWLCADPRIGPLFEEMHADLFRADYWRALQNRIREGHVEDVYAYRRRQRFSVRYGEMLF | 4.97 | – | 6.35 ± 0.23 | 10.7 ± 0.2 | 3.61 | – | – | – | – | – | – | 11.9 |
| MPRSTWFKALLLLVALWAPLSQAETGWQPIQETIRKSDKDNRQYQAIRLDNGMVVLLVSDPQAVKSLSALVVPVGSLEDPEAYQGLAHYLEHMSLMGSKKYPQADSLAEYLKMHGGSHNASTAPYRTAFYLEVENDALPGAVDRLADAIAEPLLDKKYAERERNAVNAELTMARTRDGMRMAQVSAETINPAHPGSKFSGGNLETLSDKPGNPVQQALKDFHEKYYSANLMKAVIYSNKPLPELAKMAADTFGRVPNKESKKPEITVPVVTDAQKGIIIHYVPALPRKVLRVEFRIDNNSAKFRSKTDELITYLIGNRSPGTLSDWLQKQGLVEGISANSDPIVNGNSGVLAISASLTDKGLANRDQVVAAIFSYLNLLREKGIDKQYFDELANVLDIDFRYPSITRDMDYVEWLADTMIRVPVEHTLDAVNIADRYDAKAVKERLAMMTPQNARIWYISPKEPHNKTAYFVDAPYQVDKISAQTFADWQKKAADIALSLPELNPYIPDDFSLIKSEKKYDHPELIVDESNLRVVYAPSRYFASEPKADVSLILRNPKAMDSARNQVMFALNDYLAGLALDQLSNQASVGGISFSTNANNGLMVNANGYTQRLPQLFQALLEGYFSYTATEDQLEQAKSWYNQMMDSAEKGKAFEQAIMPAQMLSQVPYFSRDERRKILPSITLKEVLAYRDALKSGARPEFMVIGNMTEAQATTLARDVQKQLGADGSEWCRNKDVVVDKKQSVIFEKAGNSTDSALAAVFVPTGYDEYTSSAYSSLLGQIVQPWFYNQLRTEEQLGYAVFAFPMSVGRQWGMGFLLQSNDKQPSFLWERYKAFFPTAEAKLRAMKPDEFAQIQQAVITQMLQAPQTLGEEASKLSKDFDRGNMRFDSRDKIVAQIKLLTPQKLADFFHQAVVEPQGMAILSQISGSQNGKAEYVHPEGWKVWENVSALQQTMPLMSEKNE | 6.72 ± 0.29 | 3.05 ± 0.33 | 5.91 ± 0.59 | 11.5 ± 0.5 | 6.24 ± 0.52 | 5.96 ± 0.35 | 6.46 ± 0.14 | 5.53 ± 0.073 | 6.17 ± 0.092 | 11.7 ± 0.35 | 5.28 ± 0.059 | 11.1 ± 0.72 |
